The target of this experiment is NGF^painless (NGF variant bearing R100E+P61S mutations) (human). Description: native MS.

By stoichiometry N is commonly meant the number of molecules, sites or subunits per partner or assembly. Substance “NGF^painless (NGF variant bearing R100E+P61S mutations) (ligand)” registered a stoichiometry N of 2.

The values are drawn from article doi:10.1101/2025.11.18.686377.
